Laboratory results as given in the DeepSol protein solubility set.

Test: soluble on expression in E. coli; label from the status in PepcDB or PDB records

Sequence	soluble on expression in E. coli
MGHHHHHHSHMSRPGHGGLMPVNGLGFPPQNVARVVVWEWLNEHSRWRPYTATVCHHIENVLKEDARGSVVLGQVDAQLVPYIIDLQSMHQFRQDTGTMRPVRRNFYDPSSAPGKGIVWEWENDGGAWTAYDMDICITIQNAYEKQHPWLDLSSLGFCYLIYFNSMSQMNRQTRRRRRLRRRLDLAYPLTVGSIPKSQSWPVGASSGQPCSCQQCLLVNSTRAASNAILASQRRKAPPAPPL	not soluble
MSLIINNIALHFLSKKEETGEVVLRLGPENAEFAQENAKVTNFVDGLHAIYNAKGSKAYGSFSSMPSEGDSARFVDLMESYLTEQQNFYDFSVQAGNVLKNEIEKYDIEETGYFVICHYEYMGGRYLFVAVIPVSEHYSVDGELNISAAQHLDTNKLQLAARIDLFDYKDNSQGNRYISFVKGRAGRKVSDFFLDFLGCEEGLNSKEQTQTLVQAVEDYVSVNQLDPAEKQKTRKDLLSYCKEQKASSQDVSLQEVGKVIESAGTEQDFYQFCQTQSYPIEESFPHEQAVVNKITKYSGYGNGISLSFERSHFGEDVVYNPHNDSLIIYKVPPNLKEQLMALLDSEKVETDLEHHHHHH	not soluble
MRKISEMPKFERPREKLLERGVGYLSDLELLAVLIGNGTKDCSVMNVAGKVLKLLDKGCDRVSARVLQEIEGVGPAKSAVIAAALEFARRRIRPEGIKITSACDILPLISYLANRKQEHFVCVSLNGASEVIATRVVSVGLVNNVQVHPREVFADPITDRATAVIVAHNHPSGSVAPSQEDIEVTKRLKDAGNTLGIKLIDHIIFSRKGYFSFLENGQMPD	soluble
MSLIILDNHFHVDPNHGLFLEAVKQFQRAGGTHLIVVYKTAHDYGFPGLKAEDFMKAMDFHIELVEKINRETQVKAYAVVGVHPAEFDYLARNKGLEFARNEVMKALEYAQKLCLEGKAVGIGEVGRPHYEVPQQIWEVSIEIMKYAMELAKDADCAVQLHTESFNEEKFRELGEYIREVGIKPYKVVKHFSPPLVNVAKEVGVFPSIIASKKNIEEAIKQGNRFLMETDYIDDKRRPGAVLGPKTVPKRTKEFLQRGIFTEEDVYKIHVENPKKVYGIEIEGHHHHHH	soluble
KMFSYEGQVIIVTGDEKSTEFCNTATANYDSFRAGPVFDGTGLNPFCFVAHDFTADYLPNGQAKMFSSNVSYAQGDRIFDDVSTWDDYSLRVNHPLRIAGDRVYLQGHGYAPTFSIQWPNGEKRTQTVQWQPTDPTFFLSDGVVRFDPPAGMNDSVYDRRQHQLAIQGLFAPTASWEGENHELLTSRFPAMTDPAVAIDVYRGDNGLDSGKGQNLFKLDTSLVHSGQLQRLERVNLTKGESVTLDDGTVVTFEGAEEFANYQISHDPTQ	not soluble
MSPMNRQRKNKSNVLNEKDERPGCIIKEKSSVRSMAKTQPTSGRTISLSEINKPIALSKKNTEIKAAVEIQNRLTKKMAKNSERRKKMAHGPEMTAQNRTQERIDFVEFLDRHYQVMQAGVSTVKVHKMHYTKEEFENVIYEAQTIFSSEKALVDIDPPCVVVGNLHGQFNDLINMFILLGRPPETVYVFTECVTSIPKCGEEIWALFQRCFNNLPISALIATKILCMHGGLSPALTCLDELRNHPKPIRNPFRGIVNDMLWADPDPSVFEWKTSSRGSGFTFGTNVIDDVCKRLGVELIIRAHQMCFDGYWVLSGRKLITIFSAPMYCNFYKNTGCVLKVDETLGIQTVAFVPESENIEKIIEEMNRVWDISIDCIE	not soluble
NTRGMALFADGGIVGTKPYAASGSYIKKMSDYCKGCHYDNKARSGEGSCPFNSLYWRFMDKHEKRLATNPRIGMIFRSWDNMEASQRQAILDT	not soluble
MGSDKIHHHHHHMEIKGKVHYVGVNDRNKALFENLWPLPYGVSYNSYLIDDEMVALVDTVDVCYFEVYLKKIRSIIGDKPINYLIINHMEPDHSGSISLIKQYYPNIVIVGNKKTFEMIEGYYGVGGERYVVGEGDFLALGHHRLRFSLIPMVHWPETMVTFDETEGILFSGDAFGCFGALNGGVVDTNINTDIYWNEMVRYYSNIVGKYGAPVQKALQKLQNLKITTVCSTHGPVWTEEIPRVVRIYDRLSRYEAEEGVVIAYGSMYGNTEEVAEAIAEELSKQGIRNIVMHNVSHTSHSFIIADVFKYKGLIVGCPTYNTQMYPEMEALLSKLASREIKGRYLGYFGSFTWASAAVKKIAEFNDKLKFEPVGNPVEMKHSMKAETNTQAKELAKAMADRLKADRK	not soluble
MLWQKPTAPEQAPAPARPYQGVRVKEPVKELLRRKRGHASSGAA	soluble
MFAPQGLAQFIKVNVTLENGEPVFIYTDANGQVCQGDITVTQAGTITYLLNDQTLKGLKFVGVGFVTPFDGIIDAVTISSDGMLVQLVDLDKTPGTTKFQFVLSNTANTLLVLSPDPQIINRPQN	soluble
MSTDTSGVGVREIDAGALPTRYARGWHCLGVAKDYLEGKPHGVEAFGTKLVVFADSHGDLKVLDGYCRHMGGDLSEGTVKGDEVACPFHDWRWGGDGRCKLVPYARRTPRMARTRSWTTDVRSGLLFVWHDHEGNPPDPAVRIPEIPEAASDEWTDWRWNRILIEGSNCRDIIDNVTDMAHFFYIHFGLPTYFKNVFEGHIASQYLHNVGRPDVDDLGTSYGEAHLDSEASYFGPSFMINWLHNRYGNYKSESILINCHYPVTQNSFVLQWGVIVEKPKGMSEEMTDKLSRVFTEGVSKGFLQDVEIWKHKTRIDNPLLVEEDGAVYQLRRWYEQFYVDVADIKPEMVERFEIEVDTKRANEFWNAEVEKNLKSREVSDDVPAEQH	soluble
MPEIRLRHVVSCSSQDSTHCAENLLKADTYRKWRAAKAGEKTISVVLQLEKEEQIHSVDIGNDGSAFVEVLVGSSAGGAGEQDYEVLLVTSSFMSPSESRSGSNPNRVRMFGPDKLVRAAAEKRWDRVKIVCSQPYSKDSPFGLSFVRFHSPPDKDEAEAPSQKVTVTKLGQFRVKEEDESANHHHHHH	soluble
MSLRSAYLSTESKIVLDVISVSDTHGWIYGHRHLPEYGDYGTLLSYIERTRQKALESEGRSVLAVDAGDLVEGTGLSDLTKVKGEKILEAASYIGFDLQTIGNHESYYKETTDYIHSKVEALFGDRYITTNVFMRDTNVPVGSGRYKYLVLPTGLRVLMLGFLFHTSPYDGVYTIPAREAIASQEITGVLEKYKYQTDLLVLACHIPTYDLEISEIVTELRAFYNQINYTIPIIIIAGHYHQIKNTYCMDGQDKQCYIVEGGCYLRFMQHVTYEFKPMTYSHEGNTYTGYQFSSVDYSLPYNEGHHHHHH	soluble
MEIINDAELIRSMQRQQHIDAELLTDANVRFEQPLEKNNYVLSEDETPCTRVNYISLDDKTVRKFSFLPSVLMKETAFKTGMCLGSNNLSRLQKAAQQILIVRGYLTSQAIIQPQNMDSGILKLRVSAGEIGDIRYEEKRDGKSAEGSISAFNNKFPLYRNKILNLRDVEQGLENLRRLPSVKTDIQIIPSEEEGKSDLQIKWQQNKPIRFSIGIDDAGGKTTGKYQGNVALSFDNPLGLSDLFYVSYGRGLAHKTDLTDATGTETESGSRSYSVHYSVPVKKWLFSFNHNGHRYHEATEGYSVNYDYNGKQYQSSLAAERMLWRNRLHKTSVGMKLWTRQTYKYIDDAEIEVQRRRSAGWEAELRHRAYLNRWQLDGKLSYKRGTGMRQSMPAPEENGGDILPGTSRMKIITASLDAAAPFILGKQQFFYATAIQAQWNKTPLVAQDKLSIGSRYTVRGFDGEQSLFGERGFYWQNTLTWYFHPNHQFYLGADYGRVSGESAQYVSGKQLMGAVVGFRGGHKVGGMFAYDLFAGKPLHKPKGFQTTNTVYGFNLNYSF	not soluble
MGSDKIHHHHHHMKKALVIGGGFAGCSAAHLLSLQGGWDITVVESGPWLGGGCKTLWYGGHPYTFGPRHFLTQNVPVFDYLNKYCPLRRCNDHVFLTYVEKDAQFYNYPIHIDDVARMPEKDQINKELTEAKQLNGAGAAKDFEEYWLASIGRTLYDKFVNTYSKKMWMLDDNKVMDDFSWSPKGVALKEGPRQAWDTAISAYPIAPNGYDDYFEIATRAEGVKVLWTTIEQYDLPNKTVVIDGEKRTYDAIINTASPDLVMDNAFGELPYIGRDFIKFVLPIAHAFPKDVYFLYYASDEPFTRLVEYKQFTRINYDAESTIIGMEIPSKNGRYYPLPLKTEYERAQKYFDAMGENVFSIGRCGSYQYRVDVDDCIAQAMDSVEKLK	not soluble
MAIIYAVRERTQSKTAMRKVMDYVVQDKKTMYENENGQRCKLVSGQNCCGDTAFKEFMTTKRQYQKEKGVYFYQYIQSFKPGIHATPQEIHQMGVELAKYFKGYEVQIATHIDRDHWHNHLIVNSVSCETGLKLQFNEKNLEQLRTLSDEICAVHGLDTLKPYQKPKQKPMGAGEYRAAVRGGSYKFKLMNAIDQAMTQSRTREEFIVRMEQMGYQVKWNPHHKYITYTTPEGQRCRDNKLHETKYLKTEMEGYFSAKLRRIEAAQQAGYTGGHPTGTTPADRSSALSAAGQRNTHRPMEHDAGEPDRSHTAVAGIDGIHIHPANRRRRKQYDEELLPERLRQADGSPVEYHTERASADYGEYDFEYGEDDGYDWMEADEYTGALGRKAPAPGHVAHKNESQMGRHRGIDFDDIVALAKAVDDLVNPYNPEEEREKKKKYVPKSDHKKQKKKQHHNHDYELSL	soluble
MGSDKIHHHHHHMILSDPRFVALSNWLYQYFGDKVAINLICGDASFRRYFRLHHQGIDYIVSDSPIDLVPIAPFLAMAKAYQHAGLLVPEVLATCNDYGFVLQTDVGELQLLSVLNKDNVTDYYKQALNLLPVIATVTETDNGPLADYDDTFVARELAIFVDWLLKEHLDYVLTDNEQQMIATTFSALTDNVLAQPKVGMHRDYHSRNLLINDQALAVIDFQDAVHGPVTYDAVSLLRDCYVRWPDDIVNHLMRYHYQLAIAHQLIDENVDFATYTKWFDLMGLQRHIKAAGIFARLYHRDGKRGYLADIPLTLQYVADIGIKYPQIADFSLWIHKVILPLVNHKNTHEVVSEA	not soluble
MLDLLVVAPHPDDGELGCGGTLARAKAEGLSTGILDLTRGEMGSKGTPEEREKEVAEASRILGLDFRGNLGFPDGGLADVPEQRLKLAQALRRLRPRVVFAPLEADRHPDHTAASRLAVAAVHLAGLRKAPLEGEPFRVERLFFYPGNHPFAPSFLVKISAFIDQWEAAVLAYRSQFTGEAASETVGPKGVEARKAMRRYWGNYLGVDYAEPFVSPLPVLYVPWSRA	soluble
MHHFSTGSSSAIIASSSSSSSSSNGYGHSPRDLLTGAAVANGGGGGFGGVAGVAFATTSPPTPVNLDVQRIDCTDETTVVMVKLTDEMFAALQESQRSGKPLRINVNDKEGRVEIGDGTASSKTNNTFYFQKQTVPEQTDTLVHSGGGVRNVGTYKTKYQIQATDRSFQETKKRAELRAEVEKSRGTKQMKKSGVTSSSSRYHNSSNSTPRSMNSAPNSSRVSPSFMSSSSSKASTSHVTTNNSKGTPNNGSESKKIDMTPQLMKHSIKKRIIHLIVTQKYSNWEEVYKKLKSDGLPEEKDEIEKIRSCVEEVSETRPEMSVMSLRTSFLSEVDQRWMFFNQEEKSHVRRLCNSGSRVGPTDNNFAPLRKKGMERITASSKTEKDKVKEKLEEAAKIPSPPKDQKSLPSIVEEDDYYTAPPEPANKRRAHNLAPPPPPPVQVVTPQTTSSQTETGPLPPKRTKRPESSSPQLERSSQPASKLNPIKLAATIAMQPIPKCDPPPPPPSRDTYHHNVASVAVNGGGSTASSRVSSPASSLSSPSQPSCNWEKQFGDIKTLSEAEAYFKQFHKEYPLYMECHEMLTKVSSEFRGLEVKLLTAVALSKTSPSPQNMQNVKQIEKNIQNRYAHFEKDPEFMKARQRHTDLRSKLNVLKTRIGSWEKMRRQSSTNV	soluble
MGHHHHHHSHMNVVKASPQSALLLYISELIQEKNPMNAMNVVKPSARKYASYNMRDVIQERLPLYVPSAENPIHTNMASLPIREFTQERNLMSAMNVERPSPQSQYSMYIKERIQERGRMDAVIVRKPSPTYQTLSNIRKCTQEKWVESVKLKTPVMESHSSFLISELMQKKTLLVP	not soluble
